# Measured values published in the RNAGym collection of RNA variant scans (doi:10.7554/elife.90254).
# B1: OR4K15 (parent)
# chain: GUUAACGGUCAUAGGCCAUGGAAACUAGGAGCACCAUUUCGCUGCCAGUGAAGAAAUGAACAAAGAAAAUCUGGGCCAGGCAGGCAUCAAAAGAAAUAGUCUUGCGCUCAACCAGAAAGUCUGUAAUCAUUUUAAGGGUA
# Variants of: B1
# Test: self-cleavage, relative activity (ratio to wild type); higher = more cleavage; in vitro, sequencing; the parent is a self-cleaving ribozyme
row,Variant,self-cleavage
1,C42A G79U,0.02
2,U39A C85G,1.07
3,U39C C85G,0.99
4,G41U U122C,1.34
5,G41C A64U,2.26
6,U39C A94C,1.43
7,U39C A94G,1.34
8,U39C G136A,2.38
9,U38C C121U,1.86
10,C40U U131C,1.93
11,U39C G79U,0.1
12,U43A A90G,0.76
13,U43A A90U,1.74
14,G41C U122A,1.57
15,C42U U108A,0
16,C42U A95G,2.84
17,U39C G106A,0.01
18,U39C U87C,1.31
19,U38C C105A,0.05
20,U38C U133A,1.64
21,G41A A66G,1.74
22,U39C C76A,0.13
23,U38C G44A,1.16
24,U39C U131C,1.05

row,Variant,self-cleavage
1,U39A A82U,0.28
2,U39A A82G,0.44
3,U39C C77U,1.75
4,U39C C77A,0.77
5,C42G A47U,1.02
6,C42G A111G,0
7,U38G A118G,0.95
8,U39C U72C,0.27
9,U39C U72A,0.32
10,G41U A52G,1.47
11,U39A U87C,1.53
12,U38C C112U,0.02
13,U38C C112A,0
14,C40U U122A,1.3
15,U39A U127C,0.28
16,C40U U132A,1.27
17,U39A U49A,1.4
18,C40U A114G,0.5
19,U39A U57C,0.73
20,U39A U120C,0.95
21,U39A U120A,1.92
22,U39A A69U,0.83
23,U39A A69G,1.5
24,U43A,1.58

row,Variant,self-cleavage
1,U39C A129U,1.16
2,U39C A129G,1.7
3,U39C A56G,0.89
4,U39C A56C,0.43
5,U39A G137A,1.8
6,U39C U49A,1.41
7,C42U U139A,2
8,U39A A129C,1.24
9,U38C G75C,0.14
10,U38C G75A,0.13
11,U39A G104A,0.03
12,U39C U97A,1.16
13,U38C G99C,0.34
14,C40G A94G,0.63
15,U39A A125G,1.01
16,U38C A126G,1.56
17,G41A U70C,1.12
18,U39A A86C,1.21
19,U39A A117G,2.24
20,U38C C77U,2.04
21,U39G A129G,0.86
22,U39A A94G,1.47
23,U39A A94C,1.87
24,G41U A68G,1.46

row,Variant,self-cleavage
1,G41A A94G,1.9
2,U38G A114G,0.79
3,U39G A125G,0.62
4,U38C C109A,0.51
5,U39G A64G,1.12
6,U43A A59G,1.52
7,U39C U108C,0.02
8,U38C U43C,1.59
9,G41U,1.74
10,G41A,1.67
11,G41C,1.78
12,U38C G80U,0.06
13,G41A U124C,1.02
14,U39C U124C,1.25
15,C42U A129G,1.47
16,C40U A95G,1.96
17,C40U A52G,1.54
18,U39C C81G,0.16
19,U38G A91G,0.38
20,U38G A62G,1.59
21,U38G A62U,1.41
22,U39C A64U,1.77
23,U39C A64C,1.88
24,U39A U131C,1.59

row,Variant,self-cleavage
1,G41A A135G,0.99
2,G41A U130C,0.99
3,U39A A118G,1.28
4,G41A U87A,1.71
5,U39A A51U,1.74
6,C40A U49C,1.85
7,C42A U120A,1.7
8,U38C A92U,1.63
9,U38C A92G,1.97
10,G41A A60G,1.63
11,U38C G93A,2.41
12,U38C G93U,2.26
13,U38C U102C,1.91
14,U38C U102A,1.44
15,U38C A98G,0.96
16,U38C A98U,1.89
17,U39C C61U,2.41
18,U38C U70A,0.58
19,U39C A114U,0.1
20,U38G A86U,1.6
21,U39C U132C,1.12
22,U39C U132A,0.7
23,G41C A67U,1.8
24,U39G A96U,1.58

row,Variant,self-cleavage
1,U39G,0.79
2,U39A,1.35
3,U39C,1.34
4,C40A A78G,0.32
5,G41C A51C,0.71
6,U39C G50A,1.2
7,U38C G74A,0.33
8,U39C A52C,1.78
9,U39C A52G,1.76
10,U39C A69G,1.37
11,C40U A59G,2.06
12,U43A A95G,0.92
13,U39C A66G,0.08
14,U39C C101U,0.46
15,G41A A52G,1.07
16,U39C G104A,0.03
17,C40A A89G,1.44
18,U39A U132C,1.97
19,U38C U131C,1.33
20,U39C A86G,1.19
21,U39C A86U,2.13
22,U38G A59G,0.9
23,C42A A69G,1.88
24,C42U A54G,1.96

row,Variant,self-cleavage
1,G41C A66U,1.25
2,G41U A47G,1.2
3,U43A A89U,1.74
4,U39A A55G,1.53
5,G41A U122C,1.67
6,U38C A110G,0.17
7,U43A A67G,1.88
8,G41U A55G,2.29
9,C42U C105U,0.05
10,U43A A96G,2.07
11,U39C A54G,0.69
12,C40U U130C,0.46
13,C40U U108A,0.01
14,U39A A59G,1.6
15,U39C G138A,1.78
16,U38C C40A,1.48
17,C40A A69G,1.65
18,U38G C113U,0.07
19,G41A A62G,2.53
20,C40U A126U,1.31
21,G41U A66G,1.11
22,U39G U132C,0.94
23,C40G A134G,0.82
